Laboratory results reported in patent US20260250737A1, “Engineered Luciferases and Luciferin Substrates” (Monod Bio, Inc., priority 2023, published 2026).
Substitutions are numbered along the chain they refer to. Names and notes keep the numbering of the source.

What was measured:
[1] = system: MBIO-301-derived split enzyme; assay: Bioluminescence emission of synthetic luciferin substrates with MBIO-301-derived split enzyme (FRB:FKBP, rapamycin); type: biochemical; settings: 1 nM MBIO-557, 1 nM MBIO-563, 10 μM Substrate, 100 nM Rapamycin
Procedure: The MBIO-301 enzyme was split into two components: MBIO-557 (Small portion) and MBIO-563 (Large portion). • MBIO-557 has the following sequence: NRVDEVRVYINGSGS (SEQ ID NO:2735) • MBIO-563 has the following sequence:
Bioluminescence emission of synthetic luciferin substrates was measured. The luciferin substrates were incubated with MBIO-301-derived split enzyme. The two-component MBIO-301 split luciferase enzyme was fused to the rapamycin inducible FRB:FKBP system and incubated with its complementary part at a 1:1 ratio. Each of the molecules was incubated with 1×PBS, 0.5% Propylene Glycol, 0.05% Anti-foam, 100 mM Imidazole, 10 mM Ascorbic Acid buffer, 100 nM Rapamycin and emission signal was measured using a Synergy H1 plate reader.
In-well concentrations: 1 nM MBIO-557 (EGFP-FRB-Small portion), 1 nM MBIO-563 (EGFP-FKBP-Large portion), 10 μM Substrate, 100 nM Rapamycin.

[2] = Luciferase activity (brightness) of LuxSit-i variants; type: biochemical
[3] = Stability of LuxSit-i variants (yeast display protease resistance, static light scattering); type: physicochemical; settings: for Stability improvement: relative to LuxSit-i
Procedure: In certain aspects, these polypeptides have improved stability at high temperatures as compared to LuxSit-i. For example, these polypeptides are stable at higher temperatures as compared to LuxSit-i. Stability may be measured by enzymatic activity and/or protein misfolding measured over a period of time. In certain embodiments, stability may be measured using static light scattering (SLS).
A single saturation mutagenesis (SSM) was performed to evaluate by yeast display the effect of single mutations in the stability of LuxSit-i (SEQ ID NO:1). The SSM library was transformed into electrocompetent cells of the strain EBY100. Twenty million cells were labeled with anti-myc FITC antibody in order to detect protein expression on the yeast surface by measuring fluorescence emission. Cells were sorted using a Sony SH800 cell sorter and those showing protein expression (FITC signal) were collected and grown. DNA was extracted from the sorted cells using conventional DNA extraction conventional methods. The DNA library was sequenced using Nanopore technology. Single amino acid substitutions that increase protein stability are enriched after sorting.
(§1) Single saturation mutagenesis (SSM) was performed to evaluate (by yeast display) the effect of single mutations in the stability of LuxSit-i-i. The SSM library was transformed into electrocompetent cells of the strain EBY100. Twenty million cells were labeled with an anti-myc FITC antibody to detect protein expression on the yeast surface by measuring the emission of fluorescence by FITC. Yeast were incubated with a mixture of 3.5 uM trypsin and 1.4 uM chymotrypsin (1/729 dilution of the stock solution) at 25° C. for 15 min. Cells were sorted using a Sony SH800 cell sorter and those showing protein expression (FITC signal) after protease incubation were collected and grown. DNA was extracted from the sorted cells using conventional DNA extraction conventional methods. The DNA library was sequenced using Nanopore technology. Single amino acid substitutions that increase protein stability are enriched after sorting.
as §1, with “LuxSit-i.” for “LuxSit-i-i.”, “antibody in order” for “antibody”, “10” for “3.5”, “4” for “1.4”, “(1/243” for “(1/729”
as §1, with “LuxSit-i.” for “LuxSit-i-i.”, “antibody in order” for “antibody”, “15” for “3.5”, “6” for “1.4”, “(1/162” for “(1/729”, “sorting. […]” for “sorting.”

LgLux_4039 = biological target: T1, LgLux_4039; assay: cell-based or functional assay
T1 chain: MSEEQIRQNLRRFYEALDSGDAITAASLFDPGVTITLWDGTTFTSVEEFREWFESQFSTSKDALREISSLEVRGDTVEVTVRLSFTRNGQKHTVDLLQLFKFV

[4] = Luciferase activity (brightness) of LuxSit-i variants; type: biochemical; settings: relative to LuxSit-i
Procedure: SSM was performed to evaluate the effect of single mutations on the luciferase activity of LuxSit-i. FIG. 3 graphically presents the mutation frequency at the positions found in the SSM as beneficial for increasing luciferase activity.
FIG. 4A provides data for luciferase activity for MBIO-148, MBIO-158 and Luxsit-i. MBIO-148, MBIO-158, and Luxsit-i were serially diluted starting from a final in-well concentration of 10,000 pM. Each dilution was combined with Diphenylterazine (DTZ) to a final in-well concentration of […]. Points shown are from the initial reading once the plate read was started.
FIG. 4B provides data for luciferase activity for MBIO-148, MBIO-301, MBIO-302, and LuxSit-i. MBIO-148, MBIO-301, MBIO-302, and Luxsit-i were serially diluted starting from a final in-well concentration of 500 pM. Each dilution was combined with DTZ to a final in-well concentration of 10 μM. Points shown are from the initial reading once the plate read was started.

[5] = among variants derived from MBIO-2859, Table 13
[6] = Table 3, combined substitutions

With `O=c1c(Cc2ccccc2)nc2c(-c3ccccc3)[nH]c(-c3ccc(O)cc3)cn1-2` [1c] the “Fold Change with Rapamycin Addition at Initial Read” value (shortened to “Fold Change with Rapamycin Addition”) [1] was 116.8.

With `O=c1c(Cc2ccccc2)nc2c(-c3ccc(F)cc3)[nH]c(-c3ccccc3)cn1-2` [2d] the “Fold Change with Rapamycin Addition” value [1] was 46.2.

With `O=c1c(Cc2ccccc2)nc2c(-c3cccnc3)[nH]c(-c3ccccc3)cn1-2` [2p] the “Fold Change with Rapamycin Addition” value [1] was 17.1.

For `O=c1c(Cc2ccccc2)nc2c(-c3ccccc3)[nH]c(-c3ccccc3)cn1-2` [DTZ, Diphenylterazine, reference compound], the “Fold Change with Rapamycin Addition” value [1] was 58.4.

B1: MBIO-3073: MBIO-2466 variant (Table 12), SEQ ID NO:2711 (protein)
chain: MSEEQIRQNLRRFYEALDSGDADTAASLFDPGVTITLWDGTTFTSVEEFREWFERLFSTSKDALREIKSLEVRGDTVEVTVQLSFTRNGQKHTVDLLQLFKFVGNRVVDVRVYTNPTG
For B1, the luciferase activity ([2]; among variants derived from MBIO-2466, Table 12) was “highest”.

B2: MBIO-4039: MBIO-2859 variant (Table 13), SEQ ID NO: 2730 (protein)
chain: B1 chain with D23I, R55S, L56Q, K68S, Q82R, D109A, T114V
With B2 the luciferase activity [2, 5] was “highest” and the stability [3, 5] was “most stable”.

For RVVIVRVYVNPTG [MBIO-5343], the “Baseline Signal (Normalized by expression)” value (LgLux_4039) was 20200 and the “Fold change upon Rap addition” value (LgLux_4039) was 1.8 fold.

B3: MBIO-301: LuxSit-i variant F9N, Q64L, A85F, H87R, H99L, T108D, H113Y, W100F; SEQ ID NO 104 (protein)
chain: MSEEQIRQNLRRFYEALDSGDADTAASLFHPGVTIHLWDGVTFTSREEFREWFERLFSTSKDALREIKSLEVRGDTVEVHVQLHFTRNGQKHTVDLTHLFHFRGNRVDEVRVYINPTG
For B3, the luciferase activity ([2]; among mutants from combinatorial library, Table 10) was “highest”.

B4: MBIO-151: LuxSit-i variant F9S_A85F_H87L, SEQ ID NO: 7 (protein)
chain: B3 chain with N9S, L64Q, R87L, L99H, F100W, D108T, Y113H
For B4, the Brightness improvement [4, 6] was “No change” and the Stability improvement [3, 6] was “No change”.

B5: MBIO-149: LuxSit-i variant A85F, SEQ ID NO 82 (protein)
chain: B3 chain with N9F, L64Q, R87H, L99H, F100W, D108T, Y113H
For B5, the Brightness improvement ([4]; Table 2, single substitutions) was “Slight increase” and the Stability improvement ([3]; Table 2, single substitutions) was “No change”.

B6: MBIO-155: LuxSit-i variant F9V_A85F_H87L_Q64W, SEQ ID NO: 4 (protein)
chain: B3 chain with N9V, L64W, R87L, L99H, F100W, D108T, Y113H
With B6 the Brightness improvement [4, 6] was “Slight increase” and the Stability improvement [3, 6] was “Slight improvement”.

B7: MBIO-152: LuxSit-i variant F9S_A85F_H87L_Q64W, SEQ ID NO: 6 (protein)
chain: B3 chain with N9S, L64W, R87L, L99H, F100W, D108T, Y113H
In the case of B7, the Brightness improvement [4, 6] is reported as “Slight increase” and the Stability improvement [3, 6] is reported as “Slight improvement”.

B8: MBIO-154: LuxSit-i variant F9V_A85F_H87L, SEQ ID NO: 5 (protein)
chain: B3 chain with N9V, L64Q, R87L, L99H, F100W, D108T, Y113H
With B8 the Brightness improvement [4, 6] was “Slight increase” and the Stability improvement [3, 6] was “Slight improvement”.

B9: MBIO-2466: MBIO-301 variant, H30D H36T H80T H84S H92S H98Q H101R; SEQ ID NO 2703 (protein)
chain: B3 chain with H30D, H36T, H80T, H84S, H92S, H98Q, H101R
With B9 the “luciferase activity, higher than MBIO-301” value ([2]; relative to MBIO-301) was “more than 5 ×”.

B10: MBIO-147: LuxSit-i variant W100F_A85F_H87L, SEQ ID NO: 3 (protein)
chain: B3 chain with N9F, L64Q, R87L, L99H, D108T, Y113H
In the case of B10, the Brightness improvement [4, 6] is reported as “Increase” and the Stability improvement [3, 6] is reported as “Monomeric”.

B11: MBIO-157: LuxSit-i variant Q64W, SEQ ID NO 47 (protein)
chain: B3 chain with N9F, L64W, F85A, R87H, L99H, F100W, D108T, Y113H
For B11, the Brightness improvement ([4]; Table 2, single substitutions) was “Slight increase” and the Stability improvement ([3]; Table 2, single substitutions) was “No change”.

B12: MBIO-150: LuxSit-i variant F9S, SEQ ID NO 73 (protein)
chain: B3 chain with N9S, L64Q, F85A, R87H, L99H, F100W, D108T, Y113H
With B12 the Brightness improvement ([4]; Table 2, single substitutions) was “No change” and the Stability improvement ([3]; Table 2, single substitutions) was “Monomeric”.

B13: MBIO-156: LuxSit-i variant H87L, SEQ ID NO 88 (protein)
chain: B3 chain with N9F, L64Q, F85A, R87L, L99H, F100W, D108T, Y113H
In the case of B13, the Brightness improvement ([4]; Table 2, single substitutions) is reported as “Slight increase” and the Stability improvement ([3]; Table 2, single substitutions) is reported as “No change”.

B14: MBIO-148: LuxSit-i variant W100F_A85F_H87L_Q64W, SEQ ID NO: 2600 (SEQ ID NO 2 in Table 4) (protein)
chain: B3 chain with N9F, L64W, R87L, L99H, D108T, Y113H
In the case of B14, the Brightness improvement [4, 6] is reported as “Increase” and the Stability improvement [3, 6] is reported as “Monomeric”.

B15: MBIO-4039_No Lysine Residues: LuxSit-i variant that lacks lysine residues, SEQ ID NO: 2737 (protein)
chain: MSGMSEEQIRQNLRRFYEALDSGDAITAASLFDPGVTITLWDGTTFTSVEEFREWFESQFSTSRDALREISSLEVRGDTVEVTVRLSFTRNGQRHTVDLLQLFRFVGNRVVAVRVYVNPT
In the case of B15, the “activity of variant that lacks lysine residues” value ([2]; all lysine residues substituted) is reported as “retains activity”.

In the case of HVVAVRVYVNPTG [MBIO-5344], the “Baseline Signal (Normalized by expression)” value (LgLux_4039) is reported as 23900 and the “Fold change upon Rap addition” value (LgLux_4039) is reported as 2 fold.
